Where no end group is shown, it is not given here. [ ]: non-standard residue; d: D form. Lys(Me3) = C[N+](C)(C)CCCC[C@H](N)C(=O)O

T1: ADD domain of ATRX (ATRXADD) (UniProt P46100 159-296)
T1 construct: ATRX, N-terminal ADD (ATRX-DNMT3-DNMT3L) domain; plasmid pGEX-GP-2-ATRX ADD from Addgene; that it comes from the GST fusion and not from the His-tagged one is surmised; also called ATRX-DNMT3-DNMT3L domain; source: E. coli BL21, purified (spin column, on-column thrombin cleavage)
T1 sequence (looked up): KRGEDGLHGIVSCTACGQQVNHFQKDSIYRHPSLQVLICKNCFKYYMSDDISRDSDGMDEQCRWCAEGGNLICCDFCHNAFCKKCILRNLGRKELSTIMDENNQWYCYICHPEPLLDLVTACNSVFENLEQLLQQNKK

B1: H3_(1-11)K9me3 peptide (peptide)
peptide: ARTKQTARKST
modifications: trimethyl-lysine at 9, printed K(me3)
notes: histone H3 tail; source: bought: GenScript
B2: H3_(1-11) A1V peptide (peptide)
peptide: VRTKQTAR[Lys(Me3)]ST
notes: histone H3 tail with A1 replaced; source: bought: GenScript
B3: H3_(1-11) A1L peptide (peptide)
peptide: LRTKQTAR[Lys(Me3)]ST
notes: as for B2
B4: H3_(1-11)K4me3K9me3 peptide (peptide)
peptide: ART[Lys(Me3)]QTAR[Lys(Me3)]ST
notes: as for B1
B5: H3_(1-10) peptide (peptide)
peptide: ARTKQTARKS
notes: as for B1
B6: H3_(1-16) peptide (peptide)
peptide: ARTKQTARKSTGGKAY
notes: as for B1

The target of the assay is T1, ADD domain of ATRX (ATRXADD). As to the kind of experiment: fluorescence polarisation; competition: ATRXADD (5 μM) and H3_(1-15)K9me3-FAM (0.75 μM) incubated 15 minutes at room temperature, then unlabeled peptide at varying concentrations; PBS; 384-well plate. The conditions noted are these: both partners purified. (In fluorescence polarisation assays a small probe gives low polarisation when free and higher when bound to something large.)
In general, IC50 refers to the concentration that inhibits the measured activity by half. A high value points to lower potency. As for B1, the IC50 came to 7.6 ± 1.4 µM.

On to B2, for which the IC50 was found to be 4.3 ± 0.8 µM. Compared with the last molecule, the IC50 is about 1.8-fold lower.

For the molecule B3, the IC50 worked out at 5.05 ± 0.7 µM.

Molecule B4 gave an IC50 of no less than 100 µM.

Consider B5, for which the half-inhibitory concentration (IC50) came to 94.8 ± 4.6 µM.

For the molecule B6, the IC50 is 85.8 ± 19.3 µM.

(Values after paper PMC7181051, “Probing the Protein-Protein Interaction between the ATRXADD Domain and the Histone H3 Tail” (Molecules, 2020).)
